IntAct's records for PubMed 25500191

B1: Pleckstrin homology domain-containing family M member 1 (Homo sapiens), Q9Y4G2 (parent)
chain: MLSVVENGLDPQAAIPVIKKKLVGSVKALQKQYVSLDTVVTSEDGDANTMCSALEAVFIHGLHAKHIRAEAGGKRKKSAHQKPLPQPVFWPLLKAVTHKHIISELEHLTFVNTDVGRCRAWLRLALNDGLMECYLKLLLQEQARLHEYYQPTALLRDAEEGEFLLSFLQGLTSLSFELSYKSAILNEWTLTPLALSGLCPLSELDPLSTSGAELQRKESLDSISHSSGSEDIEVHHSGHKIRRNQKLTASSLSLDTASSSQLSCSLNSDSCLLQENGSKSPDHCEEPMSCDSDLGTANAEDSDRSLQEVLLEFSKAQVNSVPTNGLSQETEIPTPQASLSLHGLNTSTYLHCEAPAEPLPAQAASGTQDGVHVQEPRPQAPSPLDLQQPVESTSGQQPSSTVSETAREVGQGNGLQKAQAHDGAGLKLVVSSPTSPKNKSWISEDDFYRPSREQPLESASDHPIASYRGTPGSRPGLHRHFSQEPRKNCSLGALDQACVPSPGRRQAQAAPSQGHKSFRVVHRRQMGLSNPFRGLMKLGTVERRGAMGIWKELFCELSPLEFRLYLSNEEHTCVENCSLLRCESVGPAHSDGRFELVFSGKKLALRASSQDEAEDWLDRVREALQKVRPQQEDEWVNVQYPDQPEEPPEAPQGCLSPSDLLSEPAALQGTQFDWSSAQVPEPDAIKESLLYLYMDRTWMPYIFSLSLEALKCFRIRNNEKMLSDSHGVETIRDILPDTSLGGPSFFKIITAKAVLKLQAGNAEEAALWRDLVRKVLASYLETAEEAVTLGGSLDENCQEVLKFATRENGFLLQYLVAIPMEKGLDSQGCFCAGCSRQIGFSFVRPKLCAFSGLYYCDICHQDDASVIPARIIHNWDLTKRPICRQALKFLTQIRAQPLINLQMVNASLYEHVERMHLIGRRREQLKLLGDYLGLCRSGALKELSKRLNHRNYLLESPHRFSVADLQQIADGVYEGFLKALIEFASQHVYHCDLCTQRGFICQICQHHDIIFPFEFDTTVRCAECKTVFHQSCQAVVKKGCPRCARRRKYQEQNIFA

Variants of: B1
Details: with rab7a_canlf RAB7A

Row | Variant | effect of a mutation on the interaction
1 | E729A | with no effect
2 | R769A | with no effect
